# From patent publication US20220389075A1
# B1: α-CD28 + β-41BB (Linker GGS) (TCR)
# TCR alpha: KQEVTQIPAALSVPEGENLVLNCSFTDSAIYNLQWFRQDPGKGLTSLLLIQSSQREQTSGRLNASLDKSSGRSTLYIAASQPGDSATYLCAVRPLYGGSYIPTFGRGTSLIVHPYIQNPDPAVYQLRDSKSSDKSVCLFTDFDSQTNVSQSKDSDVYITDKCVLDMRSMDFKSNSAVAWSNKSDFACANAFNNSIIPEDTFFPSPESSCDVKLVEKSFETDTNLNFQNLSVIGFRILLLKVAGFNLLMTLRLWSSGGSRSKRSRLLHSDYMNMTPRRPGPTRKHYQPYAPPRDFAAYRS
# TCR beta: NAGVTQTPKFQVLKTGQSMTLQCAQDMNHEYMSWYRQDPGMGLRLIHYSVGAGITDQGEVPNGYNVSRSTTEDFPLRLLSAAPSQTSVYFCASSYVGNTGELFFGEGSRLTVLEDLKNVFPPEVAVFEPSEAEISHTQKATLVCLATGFYPDHVELSWWVNGKEVHSGVCTDPQPLKEQPALNDSRYCLSSRLRVSATFWQNPRNHFRCQVQFYGLSENDEWTQDRAKPVTQIVSAEAWGRADCGFTSESYQQGVLSA
# B2: α-CD28 + β (Linker GGS) (TCR)
# TCR alpha: B1 TCR alpha
# TCR beta: B1 TCR beta
# B3: α-CD28 + β-CD28 (Linker GGS) (TCR)
# TCR alpha: B1 TCR alpha
# TCR beta: NAGVTQTPKFQVLKTGQSMTLQCAQDMNHEYMSWYRQDPGMGLRLIHYSVGAGITDQGEVPNGYNVSRSTTEDFPLRLLSAAPSQTSVYFCASSYVGNTGELFFGEGSRLTVLEDLKNVFPPEVAVFEPSEAEISHTQKATLVCLATGFYPDHVELSWWVNGKEVHSGVCTDPQPLKEQPALNDSRYCLSSRLRVSATFWQNPRNHFRCQVQFYGLSENDEWTQDRAKPVTQIVSAEAWGRADCGFTSESYQQGVLSATILYEILLGKATLYAVLVSALVLMAMVKRKDSRGGGSRSKRSRLLHSDYMNMTPRRPGPTRKHYQPYAPPRDFAAYRS
# Biological target: Alexa Fluor 647-labeled NY-ESO-1-MHC tetramer
# Experiment: flow cytometry of transfected Jurkat NFAT-luciferase cells stained with Alexa Fluor 647-labeled NY-ESO-1-MHC tetramer; x axis Alexa 647-A; Empty Vector gate 0.46
row,Binder,NYESO+
1,B1,52.3%
2,B2,64.5%
3,B3,53.6%
